Target: WT‐EsxB (Bacillus anthracis)
Test: SEC

## WT‐EsxB (natural protein)
  stoichiometry N: 4
